Measurements published in patent US20230131339A1, “EPI-X4 BASED PEPTIDES AND DERIVATIVES THEREOF” (Universitaet Ulm, priority 2020, published 2023).
Where a SMILES comes first, the peptide text is derived from it. [ ]: non-standard residue; d: D form. The star is where a group is joined. DOTA = O=C(O)CN1CCN(CC(=O)O)CCN(CC(=O)*)CCN(CC(=O)O)CC1

Assay: Small animal SPECT/CT and PET/CT imaging (total body distribution)
Assay type: in vivo, Balb/c mice
Conditions: ^68Ga-labeled, tail vein, 1 h p.i.
Procedure: SPECT/CT: The total body distribution of [^177Lu]Lu-Pentixather was compared to [^177Lu]Lu-DOTA-K-JM #173 and [^177Lu]Lu-DOTA-K-JM #235. Healthy Balb/c mice were injected into the tail vein with 15-20 MBq ([…]) of ^177Lu-labeled complexes and SPECT/CT images was acquired 4 h post injection (p.i.). For acquiring the images, mice were euthanized by CO2 inhalation after 4 hours, measured in a suitable dose calibrator and imaged supine, head first, using a SPECT/CT system dedicated to imaging small animals (NanoSPECT/CTTM Bioscan Inc.). The images were reconstructed using proprietary HiSPECT iterative reconstruction and fused with CT images using proprietary InVivoScope (Bioscan) software.
PET/CT: PET/CT imaging was performed to determine and compare the total body distribution of [^68Ga]Ga-Pentixather with [^68Ga]Ga-DOTA-K-JM #173. Healthy Balb/c mice were injected into the tail vein with 5-6 MBq ([…]) of ^68Ga-labeled complexes and PET/CT images were acquired 1 h p.i. For acquiring the images, mice were euthanized by CO2 inhalation after 1 h, measured in a suitable dose calibrator and imaged supine, head first, using a PET/CT system dedicated to imaging small animals (Molecubes). The images were reconstructed using the Molecubes software and fused with CT images using Vivo Quant. […]

## CC[C@@H](C)[C@@H](N)C(=O)N[C@@H](CC(C)C)C(=O)N[C@@H](CCCNC(=N)N)C(=O)N[C@@H](Cc1c[nH]c2ccccc12)C(=O)N[C@@H](CO)C(=O)N[C@@H](CCCNC(=N)N)C(=O)N[C@@H](CCCCN)C(=O)N[C@@H](CCCCNC(=O)CN1CCN(CC(=O)O)CCN(CC(=O)O)CCN(CC(=O)O)CC1)C(N)=O [[^68Ga]Ga-DOTA-K-JM#173] [metal not drawn] (H-[dI]LRWSRKK(DOTA)-NH2)
  total body distribution, PET/CT: no specific uptake in any organ in vivo
